T1: hsGLUT4 P224A (human, UniProt P14672 1-509)
T1 sequence: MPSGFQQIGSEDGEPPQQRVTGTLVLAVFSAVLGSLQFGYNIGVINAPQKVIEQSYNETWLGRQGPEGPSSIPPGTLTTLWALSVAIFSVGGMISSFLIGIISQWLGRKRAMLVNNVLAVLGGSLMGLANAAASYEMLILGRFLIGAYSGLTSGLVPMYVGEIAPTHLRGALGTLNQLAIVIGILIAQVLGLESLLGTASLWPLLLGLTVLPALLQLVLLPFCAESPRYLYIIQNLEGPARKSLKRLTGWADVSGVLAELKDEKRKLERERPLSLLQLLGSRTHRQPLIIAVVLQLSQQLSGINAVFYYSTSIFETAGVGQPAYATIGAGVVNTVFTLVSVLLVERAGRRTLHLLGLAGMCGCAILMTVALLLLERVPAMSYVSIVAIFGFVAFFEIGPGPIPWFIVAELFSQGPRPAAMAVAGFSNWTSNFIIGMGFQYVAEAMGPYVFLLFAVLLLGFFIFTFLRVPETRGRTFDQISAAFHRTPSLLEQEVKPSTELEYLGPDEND

T2: hsGLUT4 Y159A (human, UniProt P14672 1-509)
T2 sequence: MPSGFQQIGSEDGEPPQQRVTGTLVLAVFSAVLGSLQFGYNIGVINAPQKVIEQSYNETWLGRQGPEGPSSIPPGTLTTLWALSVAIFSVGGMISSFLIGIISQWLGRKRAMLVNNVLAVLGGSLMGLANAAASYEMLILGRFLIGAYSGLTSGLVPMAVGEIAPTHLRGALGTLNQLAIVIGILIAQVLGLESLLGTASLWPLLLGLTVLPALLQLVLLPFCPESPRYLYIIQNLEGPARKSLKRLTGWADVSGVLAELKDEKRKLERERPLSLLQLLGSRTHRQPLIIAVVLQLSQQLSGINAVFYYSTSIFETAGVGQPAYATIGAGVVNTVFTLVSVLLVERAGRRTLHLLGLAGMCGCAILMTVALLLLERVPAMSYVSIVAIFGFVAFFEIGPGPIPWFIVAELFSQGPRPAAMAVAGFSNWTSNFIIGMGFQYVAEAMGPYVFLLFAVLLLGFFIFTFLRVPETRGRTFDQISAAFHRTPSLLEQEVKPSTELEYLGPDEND

T3: hsGLUT4 E507A (human, UniProt P14672 1-509)
T3 sequence: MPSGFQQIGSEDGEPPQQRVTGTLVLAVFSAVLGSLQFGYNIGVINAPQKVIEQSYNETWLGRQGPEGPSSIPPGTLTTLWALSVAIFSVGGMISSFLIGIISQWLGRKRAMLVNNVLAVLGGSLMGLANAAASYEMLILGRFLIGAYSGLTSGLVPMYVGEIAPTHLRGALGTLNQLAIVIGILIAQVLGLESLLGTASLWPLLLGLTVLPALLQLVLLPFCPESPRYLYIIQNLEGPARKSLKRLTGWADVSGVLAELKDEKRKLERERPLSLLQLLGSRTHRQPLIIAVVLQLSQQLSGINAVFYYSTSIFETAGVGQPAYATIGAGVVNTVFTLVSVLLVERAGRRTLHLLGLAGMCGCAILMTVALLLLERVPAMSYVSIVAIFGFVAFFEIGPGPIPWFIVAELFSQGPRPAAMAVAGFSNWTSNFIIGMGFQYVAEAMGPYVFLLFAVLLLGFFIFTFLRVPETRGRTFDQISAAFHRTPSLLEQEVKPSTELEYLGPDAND

T4: hsGLUT4 M158A (human, UniProt P14672 1-509)
T4 sequence: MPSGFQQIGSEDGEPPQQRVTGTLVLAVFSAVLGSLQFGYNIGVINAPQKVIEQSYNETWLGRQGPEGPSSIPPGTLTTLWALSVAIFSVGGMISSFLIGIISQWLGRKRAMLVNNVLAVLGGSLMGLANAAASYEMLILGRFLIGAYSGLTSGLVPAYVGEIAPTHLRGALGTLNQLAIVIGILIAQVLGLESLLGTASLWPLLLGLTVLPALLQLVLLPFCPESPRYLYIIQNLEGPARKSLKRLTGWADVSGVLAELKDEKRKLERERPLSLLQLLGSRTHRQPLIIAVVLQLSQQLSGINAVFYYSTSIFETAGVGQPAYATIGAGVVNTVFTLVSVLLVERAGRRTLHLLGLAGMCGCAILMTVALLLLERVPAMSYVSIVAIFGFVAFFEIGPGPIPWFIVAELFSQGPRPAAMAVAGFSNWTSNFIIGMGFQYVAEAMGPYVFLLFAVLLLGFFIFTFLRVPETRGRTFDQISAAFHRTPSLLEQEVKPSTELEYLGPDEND


Assays:
Test in all cases: flow cytometry, alanine-scan library in HEK-293T
[1] = molecular target: T1, hsGLUT4 P224A
Protocol: (§1) Because of the state-dependence of the isolated MAbs, we next wished to understand the mechanism by which each MAb could recognize GLUT4 in its different conformations. The residues required for binding of each MAb were determined using shotgun mutagenesis comprehensive alanine scanning (Davidson E & Doranz B J (2014) A High-Throughput Shotgun Mutagenesis Approach to Mapping B-cell Antibody Epitopes. Immunology, which is hereby incorporated by reference in its entirety). All residues of hsGLUT4 were individually mutated to alanine, with existing alanines changed to serines. Mutations were obtained for 508 of the 509 residues of GLUT4 (excluding the initiating methionine). The entire mutation library was transfected into human HEK-293T cells in a 384-well array format (one clone per well) and assessed for immunoreactivity using high-throughput flow cytometry.
(§2) HEK-293T cells were transfected by CaPO₄ with plasmids in 6-well culture plates (Falcon) at 750,000 cells/well. At 48 hours post transfection, cells were stained with anti-V5 and anti-GLUT4 MAbs (purified scFv, 2 μg/ml) followed by biotinylated goat anti-mouse or human antibody (1:500) and streptavidin-PerCP (1:500). Fluorescence was detected using an Intellicyt high-throughput flow cytometer (HTFC; Intellicyt, Albuquerque, N. Mex.). For cell permeabilization, cells were treated with saponin at 0.1% in PBS for 20 minutes. To discriminate intact (live) and permeabilized (dead) cells without the use of detergent, propidium iodide (PI) was added to HEK-293T cells at 1 ug/ml just prior to flow cytometry. Where indicated, cytochalasin B (Sigma) was used at a final concentration of 10 uM and phloretin (Sigma) was used at a final concentration of 100 uM, each added in 10% NGS for 30 minutes prior to antibody staining as well as included with the primary antibody.

[2] = molecular target: T2, hsGLUT4 Y159A
Protocol: as §1, §2

[3] = molecular target: T3, hsGLUT4 E507A
Protocol: as §1, §2

[4] = molecular target: T4, hsGLUT4 M158A
Protocol: as §1, §2

| Molecule | % of binding to wild type GLUT4 [1] [%] | % of binding to wild type GLUT4 [2] [%] | % of binding to wild type GLUT4 [3] [%] | % of binding to wild type GLUT4 [4] [%] |
| --- | --- | --- | --- | --- |
| 1F8 (antibody) | 103 | 96 | 127 | 95 |
| AB111 (Fc fusion, Bivalent scFv-Fc; also called MAb AB111; not shown: Fc fragment of human IgG1, cloned in frame with the scFv) scFv: ALTQPSSVSANPGETVKITCSGSGSWYGWFQQKSPGSAPVTVIYSNDKRPSDIPSRFSGSKSGSTSTLTITGVQVEDEAVYYCGNWDIFGAGTTLTVLGQSSRSSGGGGSSGGGGSAVTLDESGGGLQTPGGALSLVCKASGFTFSSHGMGWVRQAPGKGLEWVASISTGRYTFYAPAVKGRATISRDNGQSTVRLQLNNLRAEDTATYYCTKCAGLNGCGGGEIDAWGHGTEVIVSS | 108 | 88 | 119 | 107 |
| AB101 (scFv, Chicken-derived clone used as a control; the four lead clones were tested as scFv-human IgG1 Fc; also called MAb AB101) scFv: ALTQPSSVSANPGETVKITCSGSSNSYGWYQQKSPGSAPVTVIYYNDKRPSDIPSRFSGSKSDSTHTLTITGVRAEDEAVYFCGSYDSTYVGIFGAGTTLTVLGQSSRSSGGGGSSGGGGSAVTLDESGGGLQTPGGTLSLVCKASGFTFSSNAMGWVRQAPGKGLEWVAGISSDGRYTKYGSAVKGRATISRDNGQSTVRLQLNNLRAEDTGTYFCAKAFGNNYRRIYAGQIDAWGHGTEVIVSS | 90 | 122 | 5 | 126 |
| AB108 (Fc fusion, Bivalent scFv-Fc; also called MAb AB108; not shown: Fc fragment of human IgG1, cloned in frame with the scFv) scFv: ALTQPSSVSANLGGTVKITCSGSSGSYGWYQQKAPGSAPVTLIYRNDKRPSDIPSRFSGSESGSTGTLTITGVQAEDEAVYFCGGYDSSAGYAAFGAGTTLTVLGQSSRSSGGGGSSGGGGSAVTLDESGGGLQTPGGALSLVCKASGFTFSSHGMGWVRQAPGKGLEWVGSISTGRYTFYAPAVKGRATISRDNGQSTLRLQLNNLRAEDTGTYYCTKCAGLNGCGGGEIDAWGHGTEVIVSS | 56 | 46 | 53 | 110 |

Source: patent publication US20210238276A1 (INTEGRAL MOLECULAR, published 2021)
